In the supplement of paper PMC10724198 one finds protein stability index data, which are given here for 116 sequences.

± gives the standard deviation of the averaged measurements.
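Also: PSI is a weighted mean of sequencing reads over stability bins, variants kept only with over 10 reads, mCherry proximal and sfGFP distal, peptide attached via GGGS linker.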

The test system of the data set is Saccharomyces cerevisiae. As to the kind of experiment: protein stability index of tFT-peptide fusion (C-terminal peptide) (PSI (0-1 scale)); higher = more stable (slower turnover). To be noted: genetic background: wild type; temperature: 30 C.
In the case of KFRLAGSVARSG, the protein stability index is 0.684 ± 0.013. KFSVVMFLDGSW registered a protein stability index of 0.697 ± 0.084.

KGENKRRVRKKN: the protein stability index came out at 0.574 ± 0.014. With KGIDTYVLQRNE the figure was 0.715 ± 0.0095.

For KGKRKETKKTKG, the protein stability index came out at 0.667 ± 0.017.

In the case of KGLKQLMQIRME, the protein stability index turned out to be 0.605 ± 0.064. With KGQGAYEGVGKE the figure was 0.663 ± 0.019; with KGRKVVLETQLQ, 0.7 ± 0.018. The sequence KGRLVGWDRNRI showed a protein stability index of 0.75 ± 0.07. With KGRTEKRGEKRT the figure was 0.717 ± 0.017; with KHEKGEKNKIEK, 0.664 ± 0.055; with KHIIPSAYTPEG, 0.661 ± 0.023. With KHKRKGSERKQG the figure was 0.608 ± 0.0066. Sequence KHQKNRLRDLGS showed a protein stability index of 0.708 ± 0.03. With KHVRIEVITERN the figure was 0.635 ± 0.056; with KIGNQLQELRRI, 0.696 ± 0.017. With KIHINTMFQIKK the figure was 0.536 ± 0.051; with KIIGVRLKFDRS, 0.761 ± 0.14. KIKEIIKIKKKR came in with a protein stability index of 0.678 ± 0.009. With KIKKKKYTKYTK the figure was 0.553 ± 0.052; with KIKNKKNKCKKK, 0.751 ± 0.14; with KIRDECFQPVNR, 0.674 ± 0.059.

As for KIYLKDKKKSKK, the protein stability index turned out to be 0.668 ± 0.057. With KKAKRKHLLGRA the figure was 0.66 ± 0.017; with KKDTTRGENYKP, 0.767 ± 0.016; with KKEGKTKSIRKK, 0.726 ± 0.013.

As for KKEKRQQEKIIK, the protein stability index was 0.671 ± 0.04.

The sequence KKEQKKKNKNDR returned a protein stability index of 0.669 ± 0.025. Turning to KKGREKKQQKER, the protein stability index came out at 0.717 ± 0.015.

For the sequence KKHKKEDNKEKK, the protein stability index was determined as 0.708 ± 0.051. For KKIKKKKQTKRK, the protein stability index was 0.662 ± 0.039. With KKIKKKQTTLKR, the protein stability index was found to be 0.665 ± 0.081. KKILNKEKSKMA yielded a protein stability index of 0.7181 ± 0.0049. With KKIRSMRREGQR the figure was 0.714 ± 0.08. With KKKEHQKIKNER the figure was 0.675 ± 0.032.

Consider KKKHIRTEKDNK, for which the protein stability index came out at 0.704 ± 0.014. With KKKIINEKKKKD the figure was 0.70019 ± 0.00067; with KKKKAKKIKKQK, 0.675 ± 0.059. With KKKKEEKKKSKK the figure was 0.644 ± 0.041; with KKKKIKIKKKKI, 0.763 ± 0.043; with KKKKIKKKEKNK, 0.716 ± 0.079. With KKKKIKKKKINI the figure was 0.597 ± 0.0067. Consider KKKKKKKETKKR, for which the protein stability index came to 0.661 ± 0.047. With KKKKKKKKKKKR the figure was 0.633 ± 0.009. With KKKKKKKKKKPK the figure was 0.611 ± 0.022; with KKKKKKKKQEQN, 0.63076 ± 3e-05; with KKKKKKKKRNRK, 0.666 ± 0.018. KKKKKKKSTKRN returned a protein stability index of 0.713 ± 0.037. With KKKKKKNTHNTK the figure was 0.646 ± 0.07.

Take KKKKKKRYRKKI: the protein stability index worked out at 0.605 ± 0.024. With KKKKKNNKRQKQ the figure was 0.593 ± 0.089; with KKKKLKQKKNKQ, 0.655 ± 0.008.

The sequence KKKKNNKKKQRT registered a protein stability index of 0.731 ± 0.027. With KKKKQIKKTKKK the figure was 0.701 ± 0.047. With KKKKQKKRETTK the figure was 0.636 ± 0.012; with KKKKQKNNRKKP, 0.574 ± 0.059; with KKKKRKGKRQPR, 0.671 ± 0.041.

For the sequence KKKKRKKKKINI, the protein stability index was determined as 0.611 ± 0.038. With KKKKRQNIQNKK the figure was 0.692 ± 0.054. KKKLEIKIEKRE displayed a protein stability index of 0.644 ± 0.042. With KKKNKKEDKRKK the figure was 0.6942 ± 0.0031; with KKKNKKKQKEEK, 0.693 ± 0.012. With KKKNKKKRKGRK the figure was 0.684 ± 0.037; with KKKNKKNKKKAE, 0.6915 ± 0.0047.

KKKQNVKSNEVG: the protein stability index turned out to be 0.651 ± 0.096. With KKKRKEEIKKKK the figure was 0.742 ± 0.012. With KKKRKKKQKIRK the figure was 0.731 ± 0.08; with KKKTIKKTIKNQ, 0.702 ± 0.031.

In turn, KKKTKEKTRKKK came in with a protein stability index of 0.702 ± 0.016. On to KKKTKRKQKIET, for which the protein stability index is 0.727 ± 0.022.

KKNKKKKIKMNK returned a protein stability index of 0.713 ± 0.038. Turning to KKNKKKRRAQKE, the protein stability index was 0.669 ± 0.044. With KKNKKPKKQNNK the figure was 0.681 ± 0.063; with KKNKNLTYKRMI, 0.716 ± 0.029; with KKNKRKLKKKKK, 0.72 ± 0.087.

KKNLHEQIGEAI showed a protein stability index of 0.687 ± 0.051. With KKNTKKKQVNQE the figure was 0.747 ± 0.05. With KKPVNINNKLSA the figure was 0.647 ± 0.017; with KKQKKKPQNKKK, 0.954 ± 0.066; with KKQKKWQSNTIR, 0.696 ± 0.034. With KKQKRRKGEREK the figure was 0.637 ± 0.0023; with KKQQKKKNKNDR, 0.651 ± 0.017. With KKRKVKKKKPNG, the protein stability index turned out to be 0.581 ± 0.033. With KKRYYNKKINEK the figure was 0.699 ± 0.046; with KKSDTKKKGQNK, 0.673 ± 0.048; with KKSGTRDKNIQH, 0.676 ± 0.046.

In the case of KKSKKHEKKKNK, the protein stability index stood at 0.711 ± 0.065. With KKTGITTNIKRW the figure was 0.741 ± 0.23; with KKTITNNCPSYD, 0.6638 ± 0.0066; with KKTKKKKNKKQE, 0.716 ± 0.081.

For the sequence KKTTKRKKEKQK, the protein stability index stood at 0.633 ± 0.07.

KKVDLEDQRKER displayed a protein stability index of 0.745 ± 0.008. The sequence KLILGGSRGIMD came in with a protein stability index of 0.646 ± 0.014. With KLNDTLKDRQNK the figure was 0.67 ± 0.037; with KLNVRATPPPTI, 0.7 ± 0.055; with KLQKKTRQKKKK, 0.653 ± 0.035. KLRETQIHQGKT came in with a protein stability index of 0.698 ± 0.021. With KLVGSLLSPDSE the figure was 0.724 ± 0.015. Sequence KMGKIQKVKGIK came in with a protein stability index of 0.731 ± 0.012. With KMTSLSRVDIEE the figure was 0.668 ± 0.087; with KMYILKGKIRKI, 0.612 ± 0.057. With KNCARIKERKDV the figure was 0.627 ± 0.03; with KNEGYHNVTMNL, 0.707 ± 0.017; with KNKGKHKGGKYR, 0.721 ± 0.059. With KNKIKITKRKRK the figure was 0.734 ± 0.0099. Sequence KNKKKNQIENRT gave a protein stability index of 0.692 ± 0.0014. With KNQKTTKKKKKI the figure was 0.543 ± 0.019; with KNSKKKKLKIER, 0.804 ± 0.27.

As to KNSLIKTKESRK, the protein stability index was 0.6947 ± 0.0021.

Turning to KNVILKKNKNWL, the protein stability index turned out to be 0.6746 ± 0.0063. With KPLPSHYPGRTP the figure was 0.658 ± 0.016; with KPRSRMHRIVRI, 0.722 ± 0.027; with KPRTLRPDQNAT, 0.689 ± 0.0087. With KQDIETDKKEEG the figure was 0.666 ± 0.13; with KQFGIHSRVFLM, 0.547 ± 0.021; with KQKNSNKKTQRI, 0.712 ± 0.021.
